Assay results from publication PMC4538829.

Key:
NM23-H2 G113F [1] = target: T1, NM23-H2 G113F (UniProt P22392 1-152, G113F); test: EMSA
NM23-H2 D121A [2] = target: T2, NM23-H2 D121A (UniProt P22392 1-152, D121A); test: EMSA
NM23-H2 D54A/D121A [3] = target: T3, NM23-H2 D54A/D121A (UniProt P22392 1-152, D54A;D121A); test: EMSA
NM23-H2 D54A/D121A/F60A [4] = target: T4, NM23-H2 D54A/D121A/F60A (UniProt P22392 1-152, D54A;F60A;D121A); test: EMSA
NM23-H2 G113F [5] = target: T1, NM23-H2 G113F; test: filter binding
NM23-H2 D121A [6] = target: T2, NM23-H2 D121A; test: filter binding
NM23-H2 D54A/D121A [7] = target: T3, NM23-H2 D54A/D121A; test: filter binding
NM23-H2 D54A/D121A/F60A [8] = target: T4, NM23-H2 D54A/D121A/F60A; test: filter binding
NM23-H2 wild-type = NM23-H2 wild-type (UniProt P22392 1-152); test: ELISA
NM23-H2 wild-type, sequence (P22392 whole entry): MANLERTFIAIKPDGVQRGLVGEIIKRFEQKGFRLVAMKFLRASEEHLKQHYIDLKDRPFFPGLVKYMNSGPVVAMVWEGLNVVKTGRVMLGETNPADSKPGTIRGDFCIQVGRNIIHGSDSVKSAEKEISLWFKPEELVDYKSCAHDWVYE

T1 sequence (P22392 whole entry G113F): as the sequence (P22392 whole entry) above, with G113F counted along it
T3 sequence (P22392 whole entry D54A/D121A): as the sequence (P22392 whole entry) above, with D54A, D121A counted along it
T2 sequence (P22392 whole entry D121A): as the sequence (P22392 whole entry) above, with D121A counted along it
T4 sequence (P22392 whole entry D54A/F60A/D121A): as the sequence (P22392 whole entry) above, with D54A, F60A, D121A counted along it

B1: c-MYC Pu27 (FAM) (ssDNA)
DNA: TGGGGAGGGTGGGGAGGGTGGGGAAGG
binding result (NM23-H2 G113F [1]): no binding | binding result (NM23-H2 D121A [2]): no binding | binding result (NM23-H2 D54A/D121A [3]): no binding | binding result (NM23-H2 D54A/D121A/F60A [4]): no binding

B2: SS-Pu27 (biotin) (ssDNA)
DNA: TGGGGAGGGTGGGGAGGGTGGGGAAGG
binding result (NM23-H2 G113F [5]): no binding | binding result (NM23-H2 D121A [6]): no binding | binding result (NM23-H2 D54A/D121A [7]): no binding | binding result (NM23-H2 D54A/D121A/F60A [8]): no binding

B3: c-MYC Pu18 G-quadruplex (structured_DNA)
DNA: AGGGTGGGGAGGGTGGGG
Kd (NM23-H2 wild-type): 530 ± 18 nM
